According to patent US20240392001A1 (University of Texas, published 2024):
Positions count from the first letter of the chain named.

B1: NeuB2-55 (antibody, V domains shown)
VH: EVQLVQSGAEVKKPGSSVKVSCKASGGTFSSYAISWVRQAPGQGLEWMGGIIPIFGTANYAQKFQGRVTITADESTSTAYMELSSLRSEDTAVYYCARGVDQVDYWGQGTLVTVSS
VL: QAVVTQPASVSGSPGQSITISCTGTSSDVGGYNYVSWYQQHPGKAPKLMIYDVSNRPSGVSNRFSGSKSGNTASLTISGLQAEDEADYYCSSYTSSSTPYVFGTGTKVTVL
notes: also called Ab55; 55-HC/55-LC
B2: NeuB2-93 (antibody, V domains shown)
VH: QVQLMQSGAEVKKPGSSVKVSCKASGGRFSSNVMSWVRQAPGQGLEWMGGIIPIFGTPKYAQKFQGRVTITADKSTSTAYMELSSLRSEDTAVYYCASGSTPFDAFDIWGQGTMVTVSS
VL: B1 VL with A2P, V4L, D52E, Y100W, T104G
notes: also called Ab93; 93-HC/93-LC
B3: NeuB2-110 (antibody, V domains shown)
VH: QVQLVESGGGLVKPGGSLRLSCGISGFTFSDYYMSWIRQAPGKGLEWVSFIGTSGSTIYYADSVKGRFTISRDNANNSLFLQMNSLTVEDTAVYYCAREATSGTYFDYWGQGTLVSVSS
VL: B1 VL with D52E, S54T
notes: Human antibody from a phage library; also called 110-HC/110-LC
B4: NeuB2-60 (antibody, V domains shown)
VH: QVQLQESGPGLVKPSGTLSLTCAVSGGSITSSNWWSWVRQPPGKGLEWIGDISHSGSTNYNPSLKGRVTMSVDRSKNQFFLKLSSVTAADTAMYYCARAFHGMDVWGQGTTVTVSS
VL: QSVLTQPPSVSEAPRQRVTISCSGSSSNIANNAVNWYQQLPGKAPKLLIYYDDLLASGVSDRFSGSRSGTSAALAISGLQSEDEADYYCATWDDDLNGPIFGGGTKVTVL
notes: also called Ab60; 60-HC/60-LC
B5: NeuB2-40 (antibody, V domains shown)
VH: QVQLVQSGAEVKKPGASVKVSCKASGYTFTNYGISWVRQAPGQGLEWMGWISGDAGDTKFAQKFQGRVTMTTDTSTTTTYMELRSLRSDDTAVYYCARDGEYIPMFRGFDNYYGLDVWGQGTTVTVSS
VL: QPVLTQPPSVSEAPRQRVTISCSGSSSNIGKNAVNWYQQFPGKAPKLLIYYDDLLPSGVSDRFSGSRSGTSASLAISGLQSEDEADYYCAAWDDRLKGYVFGTGTQLTVL
notes: also called Ab40; 40-HC/40-LC
B6: NeuB2-9 (antibody, V domains shown)
VH: QVQLVQSGAEVKKPGASVKVSCKASGYTFTSYAMHWVRQAPGQRLEWMGWINAGNGNTKYSQKFQGRVTITRDTSASTAYMELSSLRSEDTAVYYCARDFMGYCSSTSCYGVTGAFDIWGQGTMVTVSS
VL: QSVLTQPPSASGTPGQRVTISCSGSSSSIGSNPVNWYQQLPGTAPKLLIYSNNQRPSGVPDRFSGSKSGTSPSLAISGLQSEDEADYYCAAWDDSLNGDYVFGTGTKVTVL
notes: Human antibody from a phage library; also called 9-HC/9-LC
B7: NeuB2-8 (antibody, V domains shown)
VH: QLQLQESGPGLVKPSQTLSLTCAISGGNVSSKSAAWNWIRQSPSRGLEWLGRTYYRSKWYNDYAVSVKSRITINPDTSKNQFSLQLKSVTPEDTAVYYCARSLGEGWFPYFYGMDVWGQGTTVTVSS
VL: QSVLTQPASVSGSPGQSITISCTGTNRDVGGYDYVSWYQQHPGKAPKLMIYGVSNRPSGISNRFSGSKSGSTASLTISGLQVEDEAAYYCSSYTASRTVVFGGGTKVTVL
notes: Human antibody from a phage library; also called 8-HC/8-LC
B8: NeuB2-19 (antibody, V domains shown)
VH: QVQLVESGGGVVRPGGSLRLSCAASGFTFDDYGMSWVRQAPGKGLEWVSGINWNGGSTGYADSVKGRFTISRDNAKNSLYLQMNSLRAEDTALYYCAREGDGAFDIWGQGTLVTVSS
VL: QAVVTQPPSASGTPGQRVTISCSGSGSNIRSNGVTWYQQFPGTAPKLLIYDNNQRPSGVPGRFSGSKSGTSGSLAISGLQSEDEADYYCAAWDDNLNAWVFGAGTQLTVL
notes: Human antibody from a phage library; also called 19-HC/19-LC
B9: NeuB2-80 (antibody, V domains shown)
VH: QVQLVQSGAEVKKPGASVKVSCKASGYTFTSYGISWVRQAPGQGLEWMGWISAYNGNTNYAQKLQGRVTMTTDTSTSTAYMELRSLRSDDTAVYYCARDGGGGYFDYWGQGTLVTVSS
VL: QAVVTQPPSASGTPGQRITISCSGSSSNIGKNIVNWYQQVPGAAPKLLIYNNSQRPSGVPDRFSGSKSGTSASLAISGLQSEDEADYYCAAWDDSLRSWLFGGGTKVTVL
notes: Human antibody from a phage library; also called 80-HC/80-LC
B10: NeuB2-13 (antibody, V domains shown)
VH: QVQLVQSGAEVKKPGASVKVSCKASGYTFTSYYMHWVRQAPGQGLEWMGIINPSGGSTSYAQKFQGRVTMTRDTSTSTVYMELSSLRSEDTAVYYCAREDWGPFDYWGQGTTVTVSS
VL: DIQMTQSPSSLSASVGDRVTITCRASQSISNFVNWYQQKPGEVPKLLIYGASSLQSGVPSRFSGSGSGTDFTLTISSLQPEDFATYYCQQGYSVPLTFGGGTKVEIK
notes: Human antibody from a phage library; also called 13-HC/13-LC
B11: NeuB2-29 (antibody, V domains shown)
VH: QVQLVETGGGVVQPGRSLRLSCAASGFTFSDYAMHWVRQAPGKGLEWVTLISYDGSQKYYADSVKGRFTISRDDSKNTVDLQMNSLKAEDTAVYYCAKFPSLNDNVGFDVWGQGTMVTVSS
VL: QSVLTQPPSVSGAPRERVTISCSGSTSNIENNAVNWYQQLPGKAPKLLIYYDDLVPSGVSDRFSGSKSGTSASLAISGLQSGDEAYYYCAVWDDSLNGPVFGGGTKVTVL
notes: also called Ab29; NewuB2-29
B12: NeuB2-128 (antibody, V domains shown)
VH: QVQLQQSGAEVKKPGSSVKVSCKASGGTFSSYAISWVRQAPGQGLEWMGGIIPIFGTANYTQKFQGRVTITADESTSTAYMELSSLRSEDTAVYYCARGPSGSPYGMDVWGQGTTVIVSS
VL: not shown
notes: Human antibody from a phage library; also called 128-HC/128-LC
B13: NeuB2-37 (antibody, V domains shown)
VH: QVQLMQSGAEVKKPGSSVKVSCKASGGTFSSYAISWVRQAPGQGLEWMGGIIPIFGTANYAQKFQGRVTITADESTSTAYMELSSLRSEDTAVYYCARGNHVLRFLEWLPNWFDPWGQGTLVTVSS
VL: not shown
notes: also called Ab37; 37-HC/37-LC

Experiments:
[1] = target: T1, LILRB2 (UniProt Q8N423 22-460, limits assumed); assay: BLI, Octet Red96
T1 construct: Panning used recombinantly expressed LILRB2-His; also called Leukocyte Immunoglobulin-like Receptor subfamily B member 2; LILRB2-His
Procedure: Kinetic binding parameters (KD, kₒₙ, and koff) were determined using Octet Red96 instrument (ForteBio; Fremont, CA).

[2] = target: T2, LILRB2-chimeric reporter receptor on reporter cells (UniProt Q8N423 22-460); assay: cell-based or functional assay
[3] = target: T2, LILRB2-chimeric reporter receptor on …; assay: cell-based or functional assay; remark: listed apart in the source
[4] = target: T1, LILRB2; assay: ELISA of phage display clone on LILRB2
[5] = target: T3, recombinantly produced LILRB2 extracellular domain (ECD) protein (UniProt Q8N423 22-460, limits assumed); assay: ELISA, plate-coated LILRB2, anti-human F(ab)2 HRP detection
T3 construct: extracellular domain; A LILRB2-His protein was used for panning; also called plate-coated LILRB2; LILRB2 ECD
Procedure: Antibody binding affinity to LILRB2 were measured by ELISA. Increasing concentrations of purified LILRB2 antibodies were incubated with plate-coated LILRB2. The bound antibody was detected by anti-human F(ab)2 HRP, and the signals were quantified as OD₄₅₀ values. EC₅₀ values (Table 5) were calculated using non-linear curve fitting function Sigmoidal dose-response (variable slope) in GraphPad Prism.

[6] = target: T4, LILRB2 expressed on the surface of HEK293T cells (UniProt Q8N423 22-597, limits assumed); assay: flow cytometry on HEK293T cells expressing LILRB2, MFI fold over control; sheet also prints 95%CI=0.19-0.31 µg/mL
T4 construct: whole, on cells; also called HEK293T cells that express LILRB2
T4 sequence (Q8N423 22-597 limits assumed): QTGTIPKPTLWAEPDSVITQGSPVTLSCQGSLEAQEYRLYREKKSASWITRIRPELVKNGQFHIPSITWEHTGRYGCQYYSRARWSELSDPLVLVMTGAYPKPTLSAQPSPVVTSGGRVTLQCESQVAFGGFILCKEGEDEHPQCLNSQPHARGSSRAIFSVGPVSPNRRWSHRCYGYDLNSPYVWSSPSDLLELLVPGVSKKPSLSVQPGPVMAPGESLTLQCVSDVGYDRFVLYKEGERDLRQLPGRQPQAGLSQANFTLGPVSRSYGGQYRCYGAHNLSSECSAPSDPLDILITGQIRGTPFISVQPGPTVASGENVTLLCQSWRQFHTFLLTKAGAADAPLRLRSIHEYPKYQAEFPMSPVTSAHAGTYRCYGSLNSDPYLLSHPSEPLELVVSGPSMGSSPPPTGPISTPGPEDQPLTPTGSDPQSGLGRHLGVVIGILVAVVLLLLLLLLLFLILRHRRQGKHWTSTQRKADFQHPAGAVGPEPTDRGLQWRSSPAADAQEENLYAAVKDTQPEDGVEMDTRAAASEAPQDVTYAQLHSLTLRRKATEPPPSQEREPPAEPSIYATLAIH

T2 sequence (Q8N423 22-460, change not shown): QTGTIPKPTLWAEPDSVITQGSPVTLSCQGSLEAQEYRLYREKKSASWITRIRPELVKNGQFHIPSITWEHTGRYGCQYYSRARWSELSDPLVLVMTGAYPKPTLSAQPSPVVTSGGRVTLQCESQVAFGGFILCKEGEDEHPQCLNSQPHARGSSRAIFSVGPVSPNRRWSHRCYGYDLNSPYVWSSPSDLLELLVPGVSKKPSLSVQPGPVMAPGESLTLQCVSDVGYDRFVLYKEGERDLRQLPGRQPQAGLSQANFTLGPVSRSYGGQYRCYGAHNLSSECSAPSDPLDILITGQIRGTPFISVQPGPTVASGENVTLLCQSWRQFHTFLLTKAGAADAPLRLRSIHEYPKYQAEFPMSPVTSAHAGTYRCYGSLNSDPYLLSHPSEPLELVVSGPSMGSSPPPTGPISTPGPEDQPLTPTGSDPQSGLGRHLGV
T3 sequence (Q8N423 22-460 limits assumed): as the sequence (Q8N423 22-460, change not shown) above
T1 sequence (Q8N423 22-460 limits assumed): as the sequence (Q8N423 22-460, change not shown) above

| Binder | Kd [1] [nM] | koff [1] [s⁻¹] | kon [1] [M⁻¹ s⁻¹] | IC50 (M); GFP signal of LILRB2-chimeric reporter cells on plate-coated oAβ [2] [M] | IC50 (M); blocking of PS-LILRB2 interaction [3] [M] | OD450 in ELISA assay [4] | EC50 [5] [nM] | EC50 [6] [µg/mL] |
| --- | --- | --- | --- | --- | --- | --- | --- | --- |
| B1 | 56 | 0.00723 | 129000 | 1.89e-09 | 3.35e-10 | 0.886 | 0.175 | – |
| B2 | 83.9 | 0.0103 | 123000 | 3.81e-09 | 4.45e-10 | 0.543 | 0.159 | – |
| B3 | – | – | – | – | – | 0.972 | – | – |
| B4 | 24.1 | 0.00512 | 212000 | 9.82e-10 | 3.21e-10 | 0.744 | 0.161 | – |
| B5 | 19.2 | 0.00471 | 245000 | 3.6e-09 | 3.54e-10 | 0.276 | 0.0664 | – |
| B6 | – | – | – | – | – | 0.515 | – | – |
| B7 | – | – | – | – | – | 0.548 | – | – |
| B8 | – | – | – | – | – | 0.663 | – | – |
| B9 | – | – | – | – | – | 0.64 | – | – |
| B10 | – | – | – | – | – | 0.552 | – | – |
| B11 | 9 | 0.00151 | 168000 | 3.44e-10 | 1.42e-10 | 0.819 | 0.137 | 0.24 |
| B12 | – | – | – | – | – | 0.446 | – | – |
| B13 | 8.45 | 0.0004 | 47400 | 8.62e-10 | 2.93e-10 | 0.417 | 0.658 | – |
